Where a chain is given by its changes, count along the chain named.
B1: TYMS (Cys210Gly) (enzyme, human, UniProt P04818-1 1-313, looked up)
chain: MPVAGSELPRRPLPPAAQERDAEPRPPHGELQYLGQIQHILRCGVRKDDRTGTGTLSVFGMQARYSLRDEFPLLTTKRVFWKGVLEELLWFIKGSTNAKELSSKGVKIWDANGSRDFLDSLGFSTREEGDLGPVYGFQWRHFGAEYRDMESDYSGQGVDQLQRVIDTIKTNPDDRRIIMCAWNPRDLPLMALPPCHALCQFYVVNSELSGQLYQRSGDMGLGVPFNIASYALLTYMIAHITGLKPGDFIHTLGDAHIYLNHIEPLKIQLQREPRPFPKLRILRKVEKIDDFKAEDFQIEGYNPHPTIKMEMAV
notes: thymidylate synthase (TYMS), human, NM_001071.2, with Cys210Gly made by fusion PCR, in pET-28a(+); Same construct as m1 with the point mutation; source: expressed from pET-28a, purified (Ni-NTA twice); not shown: His6, N-terminal, kept
B2: TYMS (Cys180Gly) (enzyme, human, UniProt P04818-1 1-313, looked up)
chain: B1 chain with C180G, G210C
notes: thymidylate synthase (TYMS), human, NM_001071.2, with Cys180Gly made by fusion PCR, in pET-28a(+); Same construct as m1 with the point mutation; source: expressed from pET-28a, purified (Ni-NTA twice); not shown: His6, N-terminal, kept

Molecular target: the molecule itself
Experiment: SDS-PAGE without reductant (Coomassie brilliant blue, Western blot); purified protein, serially diluted, incubated with loading buffer without beta-mercaptoethanol at 37 °C or 100 °C for 10 min; also with beta-mercaptoethanol at 100 °C (~280 kDa band disappeared, ~70 kDa band weakened); also after incubation with 2 mM dUMP and 2 mM mTHF (bands unchanged); anti-His-tag blot

| Protein | binding result |
| --- | --- |
| B1 | binds |
| B2 | binds |
